Stoichiometry N data for two substances are collected here from publication PMC4931470.

The target in one experiment is E22P-Aβ42 dimer. Description: SEC; Superdex75 10/300GL, PBS pH 7.4, 0.6 mL/min; Aβ solution 25 μM incubated at 37 °C for the indicated duration, supernatant after centrifugation (17,860 x g, 4 °C, 10 min) analysed; dextran standards.
Another experiment has as its target E22P-Aβ42. Described as above.

By stoichiometry N is commonly meant the number of molecules, sites or subunits per partner or assembly. As for E22P-Aβ42 dimer (peptide), the stoichiometry N in the experiment with E22P-Aβ42 dimer is 6 to 8.
In the case of E22P-Aβ42 (peptide), in the experiment with E22P-Aβ42, the stoichiometry N was in the range of 6 to 8.
